The values below come from US20160024208A1 (Regeneron, published 2016).

Test [1] deals with full-length human Nav1.7 fused at its N-terminus to GFP, expressed in HEK293 cells (human, UniProt Q15858 1-1988). Kind of test: cell-based or functional assay.
The target of test [2] is T1, Native Nav1.7 (3-1) peptide, rat (rat).
T1 construct: Synthetic peptide; also called Rat Nav1.7 3-1 native
T1 peptide: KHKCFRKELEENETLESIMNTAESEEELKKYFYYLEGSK
Briefly: SPR, captured antibody, peptide analyte. As for the experimental part:
(§1) The binding affinities of anti-Naᵥ 1.7 antibodies to Naᵥ 1.7 loop peptides were determined by Biacore. For monovalent kinetic experiments, antibodies were captured through the Fc region via a goat anti-Fc-coupled biosensor surface, and the peptides (as analyte) were injected over this captured antibody surface. For bivalent (avidity-driven) kinetic experiments, biotinylated peptides corresponding to the Naᵥ 1.7 3-1, 3-3, or paddle loop sequences were captured on a NeutrAvidin sensor surface, and anti-Naᵥ 1.7 antibodies (as analyte) were injected over this surface. Following the capture step, each analyte was individually injected at several concentrations over its respective capture surface, and changes in bound surface units (RU) were monitored. The dissociation rate is independent of the concentration of analyte used in the experiment, and the dissociation rate constant (kd) was determined from the change in antibody-bound analyte RU over time. The Biacore kinetic data were obtained using a double referencing procedure. The double referencing was conducted by first subtracting any interaction of the analyte over the reference surface (i.e., the anti-Fc coupled surface alone or the NeutrAvidin surface alone), thereby correcting for nonspecific binding to capture surface and for refractive index changes. Control buffer injections (no analyte) over the antibody- or peptide-captured surfaces were also performed to allow subtraction of RU signal changes resulting from the natural dissociation of captured binding partner from the sensor surface. The kinetic parameters were obtained by globally fitting the data for all concentrations tested for a given peptide or antibody to a 1:1 binding model using Biacore T100 Evaluation Software version 2.0.2. The KD was calculated as the dissociation rate constant divided by the association rate constant (KD=kd/kₐ). The dissociative half-life (t_{1/2}) was calculated from the dissociation rate constant (t_{1/2}=In2/kd).
A general note: Surface plasmon resonance follows binding to a sensor surface in real time, without labels.

In test [3] the target is T2, N-Term Biotin Nav1.7 (3-1) peptide, mulatta (mulatta (monkey), not fully specified; N-terminal biotin attached via a G4S linker).
T2 construct: Synthetic peptide; also called Mulatta Nav1.7 3-1 N-term biotin; monkey
T2 peptide: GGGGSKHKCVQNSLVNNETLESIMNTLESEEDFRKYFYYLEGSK
Kind of test: SPR, captured antibody, peptide analyte. As for the experimental part:
as §1

The target in test [4] is T3, Native Nav1.7 (3-1) peptide, human (human).
T3 construct: Synthetic peptide (Celtek), unbiotinylated; also called Human Nav1.7 3-1 native; Nav1.7 3-1 native peptide
T3 peptide: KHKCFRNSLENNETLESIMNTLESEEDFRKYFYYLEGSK
Briefly: SPR, captured antibody, peptide analyte. As for the experimental part: as §1

In test [5] the target is T4, C-term Biotin Nav1.7 (3-1) peptide, human (human, not fully specified; C-terminal biotin attached via a G4S linker).
T4 construct: Synthetic peptide; also called Human Nav1.7 3-1 C-term biotin
T4 peptide: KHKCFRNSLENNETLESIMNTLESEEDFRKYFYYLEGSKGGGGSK
Kind of test: SPR, captured biotin-peptide, antibody analyte. As for the experimental part:
as §1

The target of test [6] is T1, Native Nav1.7 (3-1) peptide, rat. Kind of test: ELISA on coated peptide, antibody 1 ug/ml, OD450 grade. How it is done: (§2) Anti-Naᵥ 1.7 antibodies were tested for their ability to bind to the Naᵥ 1.7 peptides. The various peptides were coated overnight onto 96-well Nunc Immunosorp plates at a concentration of 4 μg/mL in PBS, followed by blocking for 1 hour in a suitable blocking agent. For biotinylated peptides, avidin was first coated on Nunc Immunosorp plates at 2 μg/mL in PBS overnight, followed by blocking as described, and the plate was then coated with biotinylated peptides at a concentration of 0.4 μg/mL and incubated for 1 hour at room temperature. Purified anti-Naᵥ 1.7 antibodies were diluted to a final concentration of 0.1 μg/mL and 1.0 μg/mL and added to the wells of the coated microtiter plates followed by incubation for 1 hour at room temperature. Bound antibodies were detected with horseradish peroxidase (HRP) conjugated anti-mouse or anti-human IgG (Jackson Immuno Research Lab, West Grove, Pa.) depending on the antibody species and developed by colorimetric response using tetramethylbenzidine (TMB) substrate (BD Biosciences). Absorbance was read at OD₄₅₀ on a plate reader for 0.1 second.
(§3) Values in Table 11 represent absolute binding ranges (at OD450) to plate-coated peptides for antibodies added at 1 μg/ml as follows: OD450<0.2: −; 0.2<OD450<1: +; 1<OD450<2: ++; 2<OD450<4: +++; NT: Not Tested.
In general terms: An ELISA detects its analyte on a solid surface through an enzyme-linked reagent.

Test [7] addresses T5, N-Term Biotin Nav1.7 (3-1) peptide, mouse (mouse, not fully specified; N-terminal biotin attached via a G4S linker).
T5 construct: Synthetic peptide; also called Mouse Nav1.7 3-1 N-term biotin
T5 peptide: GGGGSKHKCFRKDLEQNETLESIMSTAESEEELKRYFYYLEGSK
Kind of test: SPR, captured antibody, peptide analyte. How it is done:
as §1

In test [8] the target is T6, N-Term Biotin-Nav1.7 (3-1) peptide, human (human, not fully specified; N-terminal biotin attached via a G4S linker).
T6 construct: ELISA peptide
T6 peptide: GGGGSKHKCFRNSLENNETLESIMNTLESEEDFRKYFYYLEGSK
Kind of test: ELISA on coated peptide, antibody 1 ug/ml, OD450 grade. As for the experimental part: as §2, §3

For test [9], the target named is T2, N-Term Biotin Nav1.7 (3-1) peptide, …. The description is as above. As for the experimental part: as §2, §3

B1: H4H395B (antibody, V domains shown)
VH: EVQLVESGGGLVQPGGSLRLSCAASGFTFSSYGMSWVRQVPGKGLEWVSAISGSGGSTYYVDSVKGRFTISRDNFKNTLYLQMNSLRVEDTAVYYCAKDVGYCSTTSCRGDAFDVWGQGTMVTVSS
VL: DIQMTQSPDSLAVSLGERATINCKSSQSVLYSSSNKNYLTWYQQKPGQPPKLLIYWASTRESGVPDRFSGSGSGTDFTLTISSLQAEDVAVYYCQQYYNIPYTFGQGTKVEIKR
notes: Fully human antibody; 685/687 at r237); the full pair is used; also called H4H395N
As to B1, the “Current blocking (Average % inhibition), IonWorks Quattro, 223 nM antibody” value (shortened to “Current blocking (Average % inhibition)”) in test [1] came to 57%. The binding result in [2] is recorded as “no binding”. The equilibrium dissociation constant (Kd) in test [3] was determined as 2.5 nM; in [4], 13.2 nM; in test [5], 0.0252 nM. Further, the values for the t1/2 in test [3], in test [4] and in test [5] were 34 min, 20.7 min and 108 min, respectively.

B2: H4H443B (antibody, V domains shown)
VH: QVQLVESGGGLVQPGRSLRLSCAASGFTFDDYAMHWVRQVPGKGLEWVSGINWNSGSIGYADSVKGRFTISRDNAKNSLFLQMNSLRAEDTALYYCAKDIEYYDILTGYYSYYIMDVWGQGTTVTVSS
VL: DIQMTQSPSFLSASVGDRVTITCWASQGISSYLAWYQQKPGKAPKLLIYASSTLQSGVPSRFSGSGSGTEFTLTISSLQPEDFATYYCQQFNSYPPTFGQGTKVEIKR
Turning to B2, the OD450 in test [6] is 1 to 2 od. In test [2], the affinity, expressed as Kd, was 176 nM and the t1/2 is 0.48 min.

B3: H4H434B (antibody, V domains shown)
VH: QVQLVQSGGGLVQPGGSLRLSCAASGFTFSNYAMSWVRQAPGKGLEWVSAISGSGDNTYYADSVRGRFTISRDNSKNTLYLQMNSLRAEDTAIYYCAKDPHSSRWPGFFDLWGRGTLVTVSS
VL: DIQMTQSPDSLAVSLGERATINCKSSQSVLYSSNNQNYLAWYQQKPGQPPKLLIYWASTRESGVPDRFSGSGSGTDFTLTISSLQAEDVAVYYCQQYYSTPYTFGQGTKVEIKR
notes: Fully human antibody
Regarding B3, the “Current blocking (Average % inhibition)” value in test [1] is 17.5%. Besides, the Kd was 8.98 nM in [7]; 107 nM in test [2]; 3.68 nM in test [3]; 21.4 nM in test [4]; 0.334 nM in test [5]. For the same molecule, the t1/2 in test [7] was determined as 3.4 min; in test [2] it was 0.17 min; in test [3] it was 4.7 min; in test [4] it was 2.5 min; in [5] it was 114 min.

B4: H1H1025B (antibody, V domains shown)
VH: QVQLVESGGGVVQPGRSLRLSCAASGFTFSNYGMHWVRQAPGKGLEWVAAIWFDGSNKKYVDSVKGRFTISRDNSKNTLYLQMNSLRAGDTAVYYCTRDRSGSFDYWGQGTLVTVSS
VL: DIQLTQSPSSLSASVGDRVTITCRASQGIRNDLGWYQQKPGKAPKRLIYAASSLQSGVPSRFSGSGSGTEFTLTISSLQPEDFATYYCLQHNSYPCTFGQGTKVEIKR
notes: Fully human antibody; 722/724 at r244); the full pair is used
With B4, the binding result in test [7] and in test [2] was “no binding” each time.

B5: H1H1068B (antibody, V domains shown)
VH: QVQLVQSGAEVKKPGASVKVSCKASGYTFTSYGVSWVRQAPGQGLEWMGWISAYNGNTNYAQKLQGRVTMTTDTSTSTAYMELTSLRSDDTAVYYCARNWGDYWGQGTLVTVSS
VL: not shown
notes: Fully human antibody; the full pair is used
Take B5: the “Current blocking (Average % inhibition)” value in test [1] stood at 34%. In addition, the Kd in [3] was determined as 42.6 nM; in test [4], 236 nM; in [5], 200 nM. Moreover, the t1/2 in test [3] came out at 0.34 min; in test [4], 0.16 min; in [5], 0.3 min.

B6: H4H438B (antibody, V domains shown)
VH: QVQLQQWGAGLLTPSETLSLTCAVYGGSFSGHYWSWIRQPPGKGLEWIGEINPRGSTNYKPSLKSRVTISVDTSKNQFSLNLRSVTAADTAMYYCAREGNLAARLWFFDLWGRGTLVTVSS
VL: DIQMTQSPSSLSASVGDRGTITCRTSQSIRSYLNWYQQKPGKAPKLLIYAASSLQSGVPSRFSGSGSGTDFTLTISSLQPEDFATYFCQQSYSSPFTFGQGTKVEIKR
notes: Fully human antibody
B6: in test [1], the “Current blocking (Average % inhibition)” value is 43.5%. The binding result in test [7] is “no binding”. Moreover, the equilibrium dissociation constant (Kd) in [2] stood at 77 nM; in test [3], 0.54 nM; in [4], 2.73 nM; in test [5] it was 0.614 nM. Also, the t1/2 was found to be 0.56 min in test [2], 111 min in [3], 30.2 min in test [4] and 118 min in test [5].

B7: H4H441B (antibody, V domains shown)
VH: QVQLQQWGAGLLKPSETLSLTCAVYGGSFSGHYWTWIRQPPGKGLEWIGEINHRGNTNYNPSLKSRATISVDTSKNQFSLKLSSVTAADTAVYYCAREGSLAARLWFFDLWGRDTPVTVSS
VL: DIQMTQSPSSLSASVGDRGTVTCRASQNIRTYLNWYQQKPGKAPKLLIYAASSLQSGVPSRFSGSGSGTDFTLTISSLQPEDFATYYCQQSYGTPYTFGQGTKVEIKR
notes: as for B5
Consider B7, for which the binding result in [7] is recorded as “no binding”. Also, the Kd in test [2] came out at 178 nM; in test [3] it was 0.439 nM; in test [4], 6.58 nM; in test [5], 0.703 nM. Also, the t1/2 was determined as 0.39 min in test [2], 128 min in [3], 12.5 min in test [4] and 86.9 min in test [5].

B8: H4H385B (antibody, V domains shown)
VH: QVQLVESGGGVVQPGRSLRLSCAASGFTFSSYGMHWVRQAPGKGLEWVALISYVGSNKHYADSVKGRFTISRDNSKNTLYLQMNSLRAEDTAVYYCAKSRGYSYGLDYWGQGTLVTVSS
VL: DIQMTQSPDSLAVSLGERATINCKSSQTVLHSSNNQNNLVWYQQKPGQPPKLLIYWASTRESGVPDRFSGSGSGTDFTLTISSLQAEDVAIYYCQQYYSTPYTFGQGTKLEIKR
notes: Fully human antibody
Consider B8, for which, in [1], the “Current blocking (Average % inhibition)” value came out at 31%. For the same molecule, the binding result in [7] and in test [2] was “no binding” throughout. Further, the results for the dissociation constant (Kd) in test [3], in [4] and in test [5] were 29.3 nM, 188 nM and 0.443 nM, respectively. For the same molecule, the t1/2 in test [3] turned out to be 3.1 min; in test [4], 0.8 min; in [5], 73.2 min.

B9: H4H391B (antibody, V domains shown)
VH: QVQLVQSGGGVVQPGRSLRLSCAASGFTFSSYGMHWVRQAPGKGLEWVAVISYEGSNKHYADSVKGRFTISRDNSKNTLYLQMNSLRAEDTAVFYCAQSRGYSYGLGYWGQGTLVTVSS
VL: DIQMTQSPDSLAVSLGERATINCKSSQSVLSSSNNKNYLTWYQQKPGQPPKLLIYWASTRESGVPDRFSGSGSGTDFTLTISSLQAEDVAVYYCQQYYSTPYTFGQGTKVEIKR
For B9, the “Current blocking (Average % inhibition)” value in [1] came to 48%. In addition, the OD450 in test [8] and in test [9] was 2 to 4 od each time.

B10: H4H382B (antibody, V domains shown)
VH: EVQLVQSGGGVVQPGRSLRLSCEASGFTFSSYGMHWVRQAPGKGLEWVAVISYDGSNKHYTDSVKGRFTISRDNSKNTLYLQMNSLRAEDTAVYFCAQSRGYSYGLGYWGQGTLVTVSS
VL: DIQMTQSPDSLAVSLGERATINCKSSQSVLSSSNNENYLVWYQQKPGQPPKLLIYWASTREPGVPDRFSGGGSGTDFTLTISSLQAEDVAVYYCQQYHSIPYTFGQGTKVEIKR
With B10, the OD450 in [8] and in test [9] was 2 to 4 od throughout. The Kd in test [3] came to 13.1 nM; in test [4], 38.9 nM; in test [5], 1.04 nM. For the same molecule, the t1/2 was found to be 6 min in [3], 3.3 min in test [4] and 92.9 min in test [5].

What is called Kd is the equilibrium constant for the complex coming apart. A low value points to higher affinity.
